Experimental data taken from patent US20190060430A1 (published 2019).

Columns and labels:
Test in all cases: cytokine release
[1] = target: T1, NY-ESO-1 peptide on HLA-DRB5*02:02 (human)
T1 peptide: SGNILTIRLTAADHRQLQL

[2] = target: T2, TPTE peptide on HLA-DRB5*02:02 (human)
T2 peptide: IFFDIKLLRNIPRWTHLLR

[3] = target: T3, hCMV pp65 peptide on HLA-DRB1*07:01 (human)
T3 peptide: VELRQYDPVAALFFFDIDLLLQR

[4] = target: NY-ESO-1 peptide on HLA-DRB1*16:01 (human)
[5] = target: NY-ESO-1 peptide on HLA-DRB1*11:01 (human)
[6] = target: NY-ESO-1 peptide on HLA-DRB1*04:01 (human)
[7] = target: T4, TPTE peptide on HLA-DRB4*01:01 (human)
T4 peptide: NWNLPPRRILFIKHFIIYS

[8] = target: T5, TPTE peptide on HLA-DRB1*14:01 (human)
T5 peptide: SPISESVLARLSKFEVEDA

[9] = target: T6, NY-ESO-1 peptide on HLA-DRB1*04:01 (human)
T6 peptide: CFLPVFLAQPPSGQRR

[10] = target: T7, TPTE peptide on HLA-DRB1*07:01 (human)
T7 peptide: ILADLIFTDSKLYIPLEYR

[11] = target: T8, hCMV pp65 peptide on HLA-DRB1*07:01 (human)
T8 peptide: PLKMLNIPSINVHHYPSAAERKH

[12] = target: T9, TPTE peptide on HLA-DRB1*14:01 (human)
T9 peptide: WLHTSFIENNRLYLPKNEL

[13] = target: T10, TPTE peptide on HLA-DRB1*13:01 (human)
T10 peptide: IFFDIKLLRNIPRWTHLLR

[14] = target: T11, TPTE peptide on HLA-B*35:01 (human)
T11 peptide: YPSDFAVEI

[15] = target: T12, TPTE peptide on HLA-DRB1*14:01 (human)
T12 peptide: KHFIIYSIPRYVRDLKIQI

B1: TCRCD4-NY#13 (TCR, V domains shown)
Valpha: KQEVTQIPAALSVPEGENLVLNCSFTDSAIYNLQWFRQDPGKGLTSLLLIQSSQREQTSGRLNASLDKSSGRSTLYIAASQPGDSATYLCAVPTDSWGKLQFGAGTQVVVTP
Vbeta: DTGVSQDPRHKITKRGQNVTFRCDPISEHNRLYWYRQTLGQGPEFLTYFQNEAQLEKSRLLSDRFSAERPKGSFSTLEIQRTEQGDSAMYLCASSSKLTGIPEGTDTQYFGPGTRLTVL
binding result [1]: recognises

B2: TCRCD4-TPT#17 (TCR, V domains shown)
Valpha: DQQVKQNSPSLSVQEGRISILNCDYTNSMFDYFLWYKKYPAEGPTFLISISSIKDKNEDGRFTVFLNKSAKHLSLHIVPSQPGDSAVYFCAASPNTGNQFYFGTGTSLTVIP
Vbeta: GAGVSQSPSNKVTEKGKDVELRCDPISGHTALYWYRQSLGQGLEFLIYFQGNSAPDKSGLPSDRFSAERTGGSVSTLTIQRTQQEDSAVYLCASSLTGGPYEQYFGPGTRLTVT
binding result [2]: recognises

B3: TCRCD4-CMV#5 (TCR, V domains shown)
Valpha: GIQVEQSPPDLILQEGANSTLRCNFSDSVNNLQWFHQNPWGQLINLFYIPSGTKQNGRLSATTVATERYSLLYISSSQTTDSGVYFCAAGSNTGNQFYFGTGTSLTVIP
Vbeta: NAGVTQTPKFRVLKTGQSMTLLCAQDMNHEYMYWYRQDPGMGLRLIHYSVGEGTTAKGEVPDGYNVSRLKKQNFLLGLESAAPSQTSVYFCASSSRGYGTDTQYFGPGTRLTVL
binding result [3]: recognises

B4: TCRCD4-NY#7 (TCR, V domains shown)
Valpha: AQSVTQLDSQVPVFEEAPVELRCNYSSSVSVYLFWYVQYPNQGLQLLLKYLSGSTLVKGINGFEAEFNKSQTSFHLRKPSVHISDTAEYFCAVSKSGGYQKVTFGTGTKLQVIP
Vbeta: GAVVSQHPSWVICKSGTSVKIECRSLDFQATTMFWYRQFPKQSLMLMATSNEGSKATYEQGVEKDKFLINHASLTLSTLTVTSAHPEDSSFYICSAAPGLAGGQGGSQYFGPGTRLLVL
binding result [4]: recognises | binding result [5]: recognises

B5: TCRCD4-NY#3 (TCR, V domains shown)
Valpha: QKEVEQDPGPLSVPEGAIVSLNCTYSNSAFQYFMWYRQYSRKGPELLMYTYSSGNKEDGRFTAQVDKSSKYISLFIRDSQPSDSATYLCAMSKGAQKLVFGQGTRLTINP
Vbeta: EAGVAQSPRYKIIEKRQSVAFWCNPISGHATLYWYQQILGQGPKLLIQFQNNGVVDDSQLPKDRFSAERLKGVDSTLKIQPAKLEDSAVYLCASSLGDSNTGELFFGEGSRLTVL
binding result [6]: recognises

B6: TCRCD4-TPT#4 (TCR, V domains shown)
Valpha: AQKITQTQPGMFVQEKEAVTLDCTYDTSDPSYGLFWYKQPSSGEMIFLIYQGSYDQQNATEGRYSLNFQKARKSANLVISASQLGDSAMYFCATASNFGNEKLTFGTGTRLTIIP
Vbeta: SAVISQKPSRDICQRGTSLTIQCQVDSQVTMMFWYRQQPGQSLTLIATANQGSEATYESGFVIDKFPISRPNLTFSTLTVSNMSPEDSSIYLCSVDRDREDGYTFGSGTRLTVV
binding result [7]: recognises

B7: TCRCD4-TPT#6 (TCR, V domains shown)
Valpha: QKEVEQDPGPLSVPEGAIVSLNCTYSNSAFQYFMWYRQYSRKGPELLMYTYSSGNKEDGRFTAQVDKSSKYISLFIRDSQPSDSATYLCAMSAVSFGNVLHCGSGTQVIVLP
Vbeta: ETGVTQSPTHLIKTRGQQVTLRCSSQSGHNTVSWYQQALGQGPQFIFQYYREEENGRGNFPPRFSGLQFPNYSSELNVNALELDDSALYLCASSFGENTIYFGEGSWLTVV
binding result [8]: recognises

B8: TCRCD4-NY#1 (TCR, V domains shown)
Valpha: GIQVEQSPPDLILQEGANSTLRCNFSDSVNNLQWFHQNPWGQLINLFYIPSGTKQNGRLSATTVATERYSLLYISSSQTTDSGVYFCAVNDYKLSFGAGTTVTVRA
Vbeta: DSGVTQTPKHLITATGQRVTLRCSPRSGDLSVYWYQQSLDQGLQFLIQYYNGEERAKGNILERFSAQQFPDLHSELNLSSLELGDSALYFCASSPGVSGTTEAFFGQGTRLTVV
binding result [9]: recognises

B9: TCRCD4-TPT#11 (TCR, V domains shown)
Valpha: SQQGEEDPQALSIQEGENATMNCSYKTSINNLQWYRQNSGRGLVHLILIRSNEREKHSGRLRVTLDTSKKSSSLLITASRAADTASYFCAGYNTNAGKSTFGDGTTLTVKP
Vbeta: NAGVTQTPKFRILKIGQSMTLQCAQDMNHNYMYWYRQDPGMGLKLIYYSVGAGITDKGEVPNGYNVSRSTTEDFPLRLELAAPSQTSVYFCASSFGQVWADTQYFGPGTRLTVL
binding result [10]: recognises

B10: TCRCD4-CMV#1 (TCR, V domains shown)
Valpha: KQEVTQIPAALSVPEGENLVLNCSFTDSAIYNLQWFRQDPGKGLTSLLLIQSSQREQTSGRLNASLDKSSGRSTLYIAASQPGDSATYLCAVKDNDMRFGAGTRLTVKP
Vbeta: DTAVSQTPKYLVTQMGNDKSIKCEQNLGHDTMYWYKQDSKKFLKIMFSYNNKELIINETVPNRFSPKSPDKAHLNLHINSLELGDSAVYFCASSQEKRGAFFGQGTRLTVV
binding result [11]: recognises

B11: TCRCD4-TPT#13 (TCR, V domains shown)
Valpha: EDQVTQSPEALRLQEGESSSLNCSYTVSGLRGLFWYRQHPGKGPEFLFTLYSAGEEKEKERLKATLTKKESFLHITAPKPEDSATYLCAVQASNSGNTPLVFGKGTRLSVIA
Vbeta: DGGITQSPKYLFRKEGQNVTLSCEQNLNHDAMYWYRQDPGQGLRLIYYSQIVNDFQKGDIAEGYSVSREKKESFPLTVTSAQKNPTAFYLCASSAPHQRGTNEQFFGPGTRLTVL
binding result [12]: recognises

B12: TCRCD4-TPT#55 (TCR, V domains shown)
Valpha: AQTVTQSQPEMSVQEAETVTLSCTYDTSESDYYLFWYKQPPSRQMILVIRQEAYKQQNATENRFSVNFQKAAKSFSLKISDSQLGDAAMYFCAYRSAVYNTDKLIFGTGTRLQVFP
Vbeta: KAGVTQTPRYLIKTRGQQVTLSCSPISGHRSVSWYQQTPGQGLQFLFEYFSETQRNKGNFPGRFSGRQFSNSRSEMNVSTLELGDSALYLCASSFSSYNEQFFGPGTRLTVL
binding result [13]: recognises

B13: TCRCD4-TPT#87 (TCR, V domains shown)
Valpha: ELKVEQNPLFLSMQEGKNYTIYCNYSTTSDRLYWYRQDPGKSLESLFVLLSNGAVKQEGRLMASLDTKARLSTLHITAAVHDLSATYFCAVDMWNNNARLMFGDGTQLVVKP
Vbeta: KAGVTQTPRYLIKTRGQQVTLSCSPISGHRSVSWYQQTPGQGLQFLFEYFSETQRNKGNFPGRFSGRQFSNSRSEMNVSTLELGDSALYLCASSLAQSGANVLTFGAGSRLTVL
binding result [13]: recognises

B14: TCRCD8-TPT#3 (TCR, V domains shown)
Valpha: TQLLEQSPQFLSIQEGENLTVYCNSSSVFSSLQWYRQEPGEGPVLLVTVVTGGEVKKLKRLTFQFGDARKDSSLHITAAQPGDTGLYLCAGAQGQKLLFARGTMLKVDL
Vbeta: DTGVSQNPRHKITKRGQNVTFRCDPISEHNRLYWYRQTLGQGPEFLTYFQNEAQLEKSRLLSDRFSAERPKGSFSTLEIQRTEQGDSAMYLCASSHLAGGNTGELFFGEGSRLTVL
binding result [14]: recognises

B15: TCRCD4-TPT#5 (TCR, V domains shown)
Valpha: AQTVTQSQPEMSVQEAETVTLSCTYDTSESDYYLFWYKQPPSRQMILVIRQEAYKQQNATENRFSVNFQKAAKSFSLKISDSQLGDAAMYFCAYSRTSGTYKYIFGTGTRLKVLA
Vbeta: ETGVTQTPRHLVMGMTNKKSLKCEQHLGHNAMYWYKQSAKKPLELMFVYNFKEQTENNSVPSRFSPECPNSSHLFLHLHTLQPEDSALYLCASSQEISGSSYEQYFGPGTRLTVT
binding result [15]: recognises
